Laboratory results taken from PMC13436963.

B1: Drosophila Notch LNR domain fused to split firefly luciferase fragments (LNR–NLuc and LNR–CLuc) [Drosophila melanogaster] / Drosophila Notch LNR domain fused to split firefly luciferase fragments (LNR–NLuc and LNR–CLuc) … (parent)
chain 1: GSGNDRYAADLEQQRAMCDKRGCTEKQGNGICDSDCNTYACNFDGNDCSLGINPWANCTANECWNKFKNGKCNEECNNAACHYDGHDCERKLKSCDSLFDAYCQKHYGDGFCDYGCNNAECSWDGLDCENKTQSPV
chain 2: B1 chain 1

Variants of: B1
Test: split-luciferase complementation assay
Details: with Drosophila Notch LNR domain fused to split firefly luciferase fragments (LNR–NLuc and LNR–CLuc) [Drosophila melanogaster], S2 cells, n=5, parent: 1, read off a plot

chain 1 GSGNDRYAADLEQQRAMCDKRGCTEKQGNGICDSDCNTYACNFDGNDCSLGINPWANCTANECWNKFKNGKCNEECNNAACHYDGHDCERKLKSCDSLFDAYCQKAYGDGFCDYGCNNAECSWDGLDCENKTQSPV
ratio to parent (bar labelled 'H1570A + WT' (N-Luc / C-Luc)): 1 | ratio to parent (bar labelled 'WT + H1570A' (N-Luc / C-Luc)): 0.94

chain 1 GSGNDRYAADLEQQRAMCDKRGCTEKQGNGICDSDCNTYACNFDGNDCSLGINPWANCTANECWNKFKNGKCNEECNNAACHYDGHDCERKLKSCDSLADAYCQKHYGDGFCDYGCNNAECSWDGLDCENKTQSPV
ratio to parent (bar labelled 'F1563A + WT' (N-Luc / C-Luc)): 0.97 | ratio to parent (bar labelled 'WT + F1563A' (N-Luc / C-Luc)): 1.1
